± gives the standard deviation.
Experiment: protein stability index of a GFP-peptide fusion (GPS, HEK-293T) (PSI 1-6); higher = more stable
[1] = treatment: DMSO, c terminus: a fixed tail appended
[2] = treatment: MLN4924 1 uM, 8 h, c terminus: a fixed tail appended
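Also: 24-mer peptide tiles fused after GFP, lentivirally expressed, FACS-sorted into six equal bins by GFP/DsRed ratio, decoded by Illumina sequencing, PSI is the read-weighted mean bin number.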

## YGVASCEACKAFFKRTIQGSIEYS [ESRRA]
[1]
  protein stability index: 2.34 ± 0.22
[2]
  protein stability index: 2.52 ± 0.072

## CRETGSFLDLFRYRVLLGHTLILM [SLC22A15]
[1]
  protein stability index: 2.97 ± 0.59
[2]
  protein stability index: 2.45 ± 0.38

## ESGKEEGMKIDLIDGKGRGVIATK [KMT5A]
[1]
  protein stability index: 5.12 ± 0.41
[2]
  protein stability index: 5.39 ± 0.39

## QGEYPPGTSTWQFNFKFNLTEDMY [CNOT7]
[1]
  protein stability index: 1.9 ± 0.42
[2]
  protein stability index: 2.15 ± 0.46

## EYIVKKLSRQEFLGMVGLFGTIIS [SLC35F2]
[1]
  protein stability index: 2.43 ± 0.26
[2]
  protein stability index: 2.44 ± 0.27

## PFILPDMVGGNAVPQRTAGGDVPE [MYORG]
[1]
  protein stability index: 4.96 ± 0.24
[2]
  protein stability index: 5.09 ± 0.2

## HVGDFARDLAARWKKLVLVDRNTR [ELOA2]
[1]
  protein stability index: 2.39 ± 0.29
[2]
  protein stability index: 2.86 ± 0.34

## GTTMASGGRFRCPSCRHEVVLDRH [TRIM55]
[1]
  protein stability index: 2.08 ± 0.41
[2]
  protein stability index: 2.12 ± 0.22

## EGGIFTSPNYPSKYPPDRECIYII [NETO1]
[1]
  protein stability index: 2.76 ± 0.94
[2]
  protein stability index: 2.95 ± 0.7

## VQIYNLSQNIQEDDLQQLQLFTEY [ATL3]
[1]
  protein stability index: 2.44 ± 0.35
[2]
  protein stability index: 2.28 ± 0.27

## KTEAEIAHIALETLEGHQRAIMAH [FLOT1]
[1]
  protein stability index: 4.1 ± 0.12
[2]
  protein stability index: 4.06 ± 0.3

## NDLQDLREQILRVKDTDDVPMILV [RAP1B]
[1]
  protein stability index: 2.82 ± 0.3
[2]
  protein stability index: 3.06 ± 0.21

## ENPVGTFHCSMSPGNLEKNRYGDV [PTPN9]
[1]
  protein stability index: 3.44 ± 0.35
[2]
  protein stability index: 3.4 ± 0.38

## PAQSGILSDREVVNLFLHFTVNPK [BTBD1]
[1]
  protein stability index: 1.84 ± 0.24
[2]
  protein stability index: 2.53 ± 0.23

## TVRGATGIFPLSFVKILKDFPEED [NCF4]
[1]
  protein stability index: 3.43 ± 0.51
[2]
  protein stability index: 3.57 ± 0.4

## PMVTSPREEQQLLASTSKPVVKLL [KCTD13]
[1]
  protein stability index: 4.26 ± 0.32
[2]
  protein stability index: 4.25 ± 0.11

## MCRLEELGLAGRCLTLTPRPATEA [HDAC6]
[1]
  protein stability index: 2.21 ± 0.22
[2]
  protein stability index: 2.27 ± 0.095

## DFKNPIIEKYLRRQLTKPRPVILD [OAS1]
[1]
  protein stability index: 2.46 ± 0.11
[2]
  protein stability index: 2.36 ± 0.2

## SHSKAPSGSQMSHNAVTSHQRPGW [NCF4]
[1]
  protein stability index: 3.88 ± 0.23
[2]
  protein stability index: 4.05 ± 0.22

## MARLQEEHGDQLLSIRCQHQEQVE [MTUS2]
[1]
  protein stability index: 4.85 ± 0.38
[2]
  protein stability index: 4.96 ± 0.11

## CDEARNHYGGVVSLIPLILDLMKE [SPACA9]
[1]
  protein stability index: 2.3 ± 0.29
[2]
  protein stability index: 2.36 ± 0.23

## REAVPALLGEPLAGPELDEMLREV [CABP4]
[1]
  protein stability index: 5.13 ± 0.22
[2]
  protein stability index: 5.12 ± 0.31

## ETNLLLAQKQRLERALDATEVPFS [TEKT4]
[1]
  protein stability index: 4.1 ± 0.29
[2]
  protein stability index: 4.21 ± 0.25

## FLVFVIVLFFIYHFMQAEEGNPF [EMD]
treatment: DMSO, c terminus: native
  protein stability index: 2.94 ± 0.44
treatment: MLN4924 1 uM, 8 h, c terminus: native
  protein stability index: 2.83 ± 0.17

## AGSSLPTSSKVNATVPSNMMSVNG [ACBD3]
[1]
  protein stability index: 4.13 ± 0.19
[2]
  protein stability index: 4.16 ± 0.14

## LTLVFFVQITGQPNILFYASTVLK [SLC2A12]
[1]
  protein stability index: 3.19 ± 0.51
[2]
  protein stability index: 3.5 ± 0.59

## RQLRRRALHPERAMDNHSDSEEEL [RETREG3]
[1]
  protein stability index: 5.47 ± 0.15
[2]
  protein stability index: 5.51 ± 0.2

## FKLDKKYQRPQDSEDMWGDEDFTF [FBF1]
[1]
  protein stability index: 4.12 ± 0.18
[2]
  protein stability index: 4.14 ± 0.23

## RELGPEELDELQAAFEEFDTDRDG [CABP4]
[1]
  protein stability index: 5.63 ± 0.39
[2]
  protein stability index: 5.54 ± 0.35

## KRKEEEALKDSLRPKLSEEQQRII [VDR]
[1]
  protein stability index: 5.09 ± 0.26
[2]
  protein stability index: 5.06 ± 0.23

## KRESPGVGGGSGDEASAATPPSSR [ZBTB22]
[1]
  protein stability index: 5.53 ± 0.23
[2]
  protein stability index: 5.451 ± 0.044

## DARDGQSRTVRQFQFTDWPEQGVP [PTPRD]
[1]
  protein stability index: 4.08 ± 0.61
[2]
  protein stability index: 4.32 ± 0.41

## TIFEKENFIGRQWEISDDYPSLQA [CRYBA1]
[1]
  protein stability index: 3.26 ± 0.29
[2]
  protein stability index: 3 ± 0.32

## CRLKRCVDIGMMKEFILTDEEVQR [VDR]
[1]
  protein stability index: 2.49 ± 0.28
[2]
  protein stability index: 2.53 ± 0.13

## LEYLYTDSCCPAGIFQAMCLLICA [RHOBTB3]
[1]
  protein stability index: 3.08 ± 0.45
[2]
  protein stability index: 3.19 ± 0.55

## NFRVGKKIGCGNFGELRLGKNLYT [CSNK1G1]
[1]
  protein stability index: 2.24 ± 0.4
[2]
  protein stability index: 2.11 ± 0.15

## SLQRWEHLKKVASRYQNNIKNDKY [PRIM1]
[1]
  protein stability index: 2.47 ± 0.25
[2]
  protein stability index: 2.91 ± 0.56

## EGSDYINASFIDGYRQQKAYIATQ [PTPRD]
[1]
  protein stability index: 3.18 ± 0.25
[2]
  protein stability index: 3.34 ± 0.23

## KSWLNGFRPKDQTSVGMSFVAGGI [SLC25A39]
[1]
  protein stability index: 2.2 ± 0.18
[2]
  protein stability index: 2.43 ± 0.24

## EAEADEEADPPASDLPTPQAIEPQ [SNX8]
[1]
  protein stability index: 5.62 ± 0.17
[2]
  protein stability index: 5.63 ± 0.26

## HHAQTSKTERINALELLGATFVDK [FEM1C]
[1]
  protein stability index: 3.83 ± 0.12
[2]
  protein stability index: 3.86 ± 0.31

## EGAQLKKVEQNSRPVSCSGRDALL [WASL]
[1]
  protein stability index: 4.53 ± 0.39
[2]
  protein stability index: 4.72 ± 0.48

## SAKTRQRVEDAFYTLVREIRQYRL [KRAS]
[2]
  protein stability index: 2.31 ± 0.4

## FHYIIEQGVCYLVLCEAAFPKKLA [SEC22B]
[1]
  protein stability index: 3.01 ± 0.71
[2]
  protein stability index: 2.68 ± 0.63

## TGKWYELQDLQVTDILPQMITLSE [USP39]
[1]
  protein stability index: 2.51 ± 0.29
[2]
  protein stability index: 2.85 ± 0.18

Source: the supplement of paper PMC10567573
